This is an account of results in the supplement of paper PMC7877785.

± gives the uncertainty stated by the source.

The series in a line: self-splicing fitness, log relative to wild type (ln ratio); higher = more splicing; Tetrahymena group I intron in knt gene, E. coli kanamycin selection, DiMSum; sequences stand for … in CUCUCU…GGAGGGAAAAGUUAUCAGGCAUGCACCUGGUAGCUAGUCUUUAAACCAAUAGAUUGCAUCGGUUUAAAAGGCAAGACCGUCAAAUUGCGGGAAAGGGGUCAACAGCCGUUCAGUACCAAGUCUCAGGGGAAACUUUGAGAUGGCCUUGCAAAGGGUAUGGUAAUAAGCUGACGGACAUGGUCCUAACCACGCAGCCAAGUCCUAAGUCAACAGAUCUUCUGUUGAUAUGGAUGCAGUUCACAGACUAAAUGUCGGUCGGGGAAGAUGUAUUCUUCUCAUAAGAUAUAGUCGGACCUCUCCUUAAUGGGAGCUAGCGGAUGAAGUGAUGCAACACUGGAGCCGCUGGGAACUAAUUUGUAUGCGAAAGUAUAUUGAUUAGUUUUGGAGUACUCGUGGUCG
The method in brief:
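Library with all eight P1ex-region intron nucleotides randomised, intron inside the knt kanamycin-resistance gene on pET-22b(+), in E. coli BL21(DE3). Cells grew overnight at 37°C or 30°C on LB agar with or without 25 μg/mL kanamycin (plus 100 μg/mL carbenicillin, 50 μM IPTG, 0.2% rhamnose), in six replicate transformations. Pooled colonies were amplicon-sequenced on Illumina HiSeq 2500. DiMSum fitness is the error-weighted combination of wild-type-normalised replicate fold changes, kanamycin versus none.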

For the sequence CCACAGCAAUAUUACGGUUC, the “self-splicing fitness (ln)” value (30 °C) was -3.39 ± 0.18 and the “self-splicing fitness (ln)” value (37 °C) was -2.27 ± 0.19.
AAGAAGCAAUAUUACGCUCA: the “self-splicing fitness (ln)” value (30 °C) was -0.0265 ± 0.13 and the “self-splicing fitness (ln)” value (37 °C) is -0.132 ± 0.12.
For UUCGAGCAAUAUUACGCGAC, the “self-splicing fitness (ln)” value by setting is: (30 °C) -3.69 ± 0.32; (37 °C) -1.18 ± 0.19.
The matching figures for CCGUAGCAAUAUUACGGCAG: -3.35 ± 0.26 and -2.28 ± 0.26.
The like results for GACAAGCAAUAUUACGGCAU were, in that order, -0.363 ± 0.067 and 0.227 ± 0.088.
With CACGAGCAAUAUUACGGGCA, the “self-splicing fitness (ln)” value (30 °C) is -2.84 ± 0.31.
On the same count and under the same terms, in the case of GGCAAGCAAUAUUACGGGCC it was -2.85 ± 0.39.
Regarding AGGCAGCAAUAUUACGGUUU, the “self-splicing fitness (ln)” value is -0.696 ± 0.043 (30 °C) and -0.371 ± 0.062 (37 °C).
Consider UAGGAGCAAUAUUACGCAGU, for which, where the note is “37 °C”, the “self-splicing fitness (ln)” value is -1.96 ± 0.28.
With AUUAAGCAAUAUUACGAUUG, the “self-splicing fitness (ln)” value (30 °C) is -2.98 ± 0.15 and the “self-splicing fitness (ln)” value (37 °C) is -1.86 ± 0.2.
Take UGGUAGCAAUAUUACGCACG: under “30 °C”, the “self-splicing fitness (ln)” value was -0.419 ± 0.17.
Same read-out and setting: then UCGGAGCAAUAUUACGGCGC, with -2.09 ± 0.31.
For UUGAAGCAAUAUUACGUGGA, the “self-splicing fitness (ln)” value is -2.33 ± 0.11 (30 °C) and -1.6 ± 0.14 (37 °C).
The like results for UAUAAGCAAUAUUACGAUAU were, in that order, -2.9 ± 0.21 and -1.96 ± 0.2.
The matching figures for AGGAAGCAAUAUUACGUAAG: -1.39 ± 0.11 and -2.01 ± 0.17.
The like results for GAAAAGCAAUAUUACGGUGA were, in that order, -1.48 ± 0.07 and -1.07 ± 0.075.
Take CAUGAGCAAUAUUACGGCAG: the “self-splicing fitness (ln)” value (30 °C) was -0.481 ± 0.086 and the “self-splicing fitness (ln)” value (37 °C) was -0.96 ± 0.14.
Consider UUAUAGCAAUAUUACGAGCG, for which the “self-splicing fitness (ln)” value was -0.835 ± 0.28 (30 °C) and -0.754 ± 0.29 (37 °C).
ACCAAGCAAUAUUACGGGGA: the “self-splicing fitness (ln)” value reads like this: (30 °C) -2.16 ± 0.09; (37 °C) -1.85 ± 0.098.
The matching figures for AGUAAGCAAUAUUACGAUAC: -3.12 ± 0.28 and -2.48 ± 0.38.
The matching figures for CACAAGCAAUAUUACGGUCU: -2.76 ± 0.1 and -1.99 ± 0.12.
The like results for GGGCAGCAAUAUUACGUCUC were, in that order, -2.15 ± 0.23 and -1.41 ± 0.15.
Take GUGGAGCAAUAUUACGCGUC: the “self-splicing fitness (ln)” value runs as follows: (30 °C) -2.82 ± 0.35; (37 °C) -1.76 ± 0.47.
On to UCGAAGCAAUAUUACGACGG, for which the “self-splicing fitness (ln)” value (30 °C) is -1.8 ± 0.17 and the “self-splicing fitness (ln)” value (37 °C) is -0.892 ± 0.18.
The matching figures for GAAUAGCAAUAUUACGAAAA: -1.52 ± 0.22 and -1.02 ± 0.2.
The matching figures for UAGCAGCAAUAUUACGGGAC: -4.55 ± 0.31 and -2.75 ± 0.26.
The matching figures for UAGAAGCAAUAUUACGAAGA: -1.77 ± 0.18 and -0.969 ± 0.17.
Consider UGGUAGCAAUAUUACGGCAA, for which the “self-splicing fitness (ln)” value is -1.14 ± 0.086 (30 °C) and 0.277 ± 0.1 (37 °C).
The matching figures for AAAGAGCAAUAUUACGUACA: -3.37 ± 0.28 and -1.71 ± 0.23.
On to AGGCAGCAAUAUUACGGGCG, for which the “self-splicing fitness (ln)” value by setting is: (30 °C) -0.287 ± 0.097; (37 °C) -0.172 ± 0.11.
The matching figures for GCUCAGCAAUAUUACGGUAU: -1.14 ± 0.061 and 0.0133 ± 0.075.
The matching figures for GGUGAGCAAUAUUACGAUGU: -2.19 ± 0.15 and -1.69 ± 0.23.
The matching figures for UGACAGCAAUAUUACGGCUC: -1.37 ± 0.16 and -0.546 ± 0.17.
Consider ACGAAGCAAUAUUACGCAAC, for which the “self-splicing fitness (ln)” value runs as follows: (30 °C) -3.3 ± 0.25; (37 °C) -2.38 ± 0.39.
Consider UGCUAGCAAUAUUACGCGUG, for which the “self-splicing fitness (ln)” value runs as follows: (30 °C) -0.934 ± 0.074; (37 °C) -0.462 ± 0.082.
The matching figures for CGGAAGCAAUAUUACGACCG: -3.04 ± 0.35 and -2.26 ± 0.45.
The matching figures for GCCCAGCAAUAUUACGGCGU: -1.12 ± 0.064 and -0.731 ± 0.089.
Take GGCGAGCAAUAUUACGAGAU: the “self-splicing fitness (ln)” value is -3.61 ± 0.32 (30 °C) and -2.37 ± 0.49 (37 °C).
The like results for GAACAGCAAUAUUACGCUCA were, in that order, -1.23 ± 0.073 and 0.207 ± 0.1.
The matching figures for CGUAAGCAAUAUUACGAUGG: -1.37 ± 0.097 and -0.574 ± 0.13.
The like results for CCAUAGCAAUAUUACGGACU were, in that order, -3.84 ± 0.33 and -1.85 ± 0.29.
For the sequence CAUAAGCAAUAUUACGUUGU, the “self-splicing fitness (ln)” value by setting is: (30 °C) -3.55 ± 0.15; (37 °C) -2.98 ± 0.18.
The like results for CCUGAGCAAUAUUACGGGUU were, in that order, -4.27 ± 0.34 and -2.56 ± 0.31.
Consider AGGGAGCAAUAUUACGCUUA, for which the “self-splicing fitness (ln)” value was -3.44 ± 0.24 (30 °C) and -1.62 ± 0.21 (37 °C).
The matching figures for GCCUAGCAAUAUUACGCAAU: -0.932 ± 0.14 and -0.245 ± 0.17.
Take AAGGAGCAAUAUUACGUGGG: the “self-splicing fitness (ln)” value runs as follows: (30 °C) -2.68 ± 0.18; (37 °C) -2.68 ± 0.17.
Turning to UGAUAGCAAUAUUACGCGUC, the “self-splicing fitness (ln)” value (30 °C) is -3.08 ± 0.31.
In the case of AAGAAGCAAUAUUACGAUUG, the “self-splicing fitness (ln)” value was -2.85 ± 0.26 (30 °C) and -1.78 ± 0.19 (37 °C).
The matching figures for UGCAAGCAAUAUUACGCACC: -1.89 ± 0.24 and -1.25 ± 0.32.
The matching figures for UAGUAGCAAUAUUACGGUCU: -1.79 ± 0.17 and -0.706 ± 0.13.
The matching figures for CGCGAGCAAUAUUACGACAA: -2.72 ± 0.34 and -2.28 ± 0.33.
In the case of GAUAAGCAAUAUUACGUAAC, the “self-splicing fitness (ln)” value (30 °C) was -1.22 ± 0.1 and the “self-splicing fitness (ln)” value (37 °C) was -0.811 ± 0.16.
On to CUUCAGCAAUAUUACGAGAG, for which the “self-splicing fitness (ln)” value was -2.81 ± 0.12 (30 °C) and -1.79 ± 0.14 (37 °C).
The like results for GGGUAGCAAUAUUACGGUUC were, in that order, -0.821 ± 0.095 and 0.258 ± 0.13.
Regarding UGCCAGCAAUAUUACGCAGC, the “self-splicing fitness (ln)” value (37 °C) was -2.15 ± 0.42.
Consider UCGCAGCAAUAUUACGAGGG, for which the “self-splicing fitness (ln)” value runs as follows: (30 °C) -2.72 ± 0.11; (37 °C) -1.65 ± 0.13.
In the case of GCCCAGCAAUAUUACGAGUA, the “self-splicing fitness (ln)” value runs as follows: (30 °C) -0.468 ± 0.14; (37 °C) -0.671 ± 0.1.
The like results for CCCAAGCAAUAUUACGUGAC were, in that order, -3.91 ± 0.25 and -2.03 ± 0.19.
The like results for ACAGAGCAAUAUUACGGGAA were, in that order, -2.54 ± 0.19 and -2.98 ± 0.34.
Consider GGAAAGCAAUAUUACGGUUG, for which the “self-splicing fitness (ln)” value (37 °C) was -1.2 ± 0.26.
For the sequence AGAUAGCAAUAUUACGACCU, the “self-splicing fitness (ln)” value was found to be 0.592 ± 0.11 (30 °C) and 0.469 ± 0.15 (37 °C).
The like results for GGCCAGCAAUAUUACGGGGC were, in that order, -5.35 ± 0.32 and -4.33 ± 0.23.
The like results for GAUAAGCAAUAUUACGUUGG were, in that order, -3.89 ± 0.21 and -2.87 ± 0.25.
The like results for AGGUAGCAAUAUUACGAUGU were, in that order, -0.919 ± 0.013 and -0.474 ± 0.033.
Take CGCAAGCAAUAUUACGCAUU: the “self-splicing fitness (ln)” value was -4.11 ± 0.19 (30 °C) and -3.12 ± 0.21 (37 °C).
The like results for AUGAAGCAAUAUUACGAAAU were, in that order, -0.819 ± 0.07 and -0.46 ± 0.073.
On to CUUCAGCAAUAUUACGAGUA, for which the “self-splicing fitness (ln)” value (30 °C) was -1.21 ± 0.4.
In the case of AGGGAGCAAUAUUACGAUAU, the “self-splicing fitness (ln)” value (37 °C) is -1.88 ± 0.47.
Turning to UGACAGCAAUAUUACGUUUA, the “self-splicing fitness (ln)” value runs as follows: (30 °C) -0.565 ± 0.061; (37 °C) -0.556 ± 0.07.
As to UCAAAGCAAUAUUACGGUGC, the “self-splicing fitness (ln)” value is, setting by setting: (30 °C) -3.92 ± 0.42; (37 °C) -1.94 ± 0.39.
The like results for UACCAGCAAUAUUACGCUUC were, in that order, -3.17 ± 0.23 and -2.3 ± 0.24.
The matching figures for ACGGAGCAAUAUUACGUUCU: -3.16 ± 0.31 and -2.52 ± 0.22.
The like results for GCCCAGCAAUAUUACGAUCG were, in that order, -3.49 ± 0.12 and -1.44 ± 0.1.
For CAAAAGCAAUAUUACGACUC, the “self-splicing fitness (ln)” value is -1.44 ± 0.11 (30 °C) and -0.245 ± 0.13 (37 °C).
As to GCAUAGCAAUAUUACGAUUU, the “self-splicing fitness (ln)” value was -1.27 ± 0.092 (30 °C) and 0.225 ± 0.14 (37 °C).
Consider CUAGAGCAAUAUUACGAGCG, for which the “self-splicing fitness (ln)” value runs as follows: (30 °C) 0.131 ± 0.1; (37 °C) 0.74 ± 0.12.
The matching figures for CCAAAGCAAUAUUACGUGAU: -3.5 ± 0.21 and -3.14 ± 0.24.
In the case of CUACAGCAAUAUUACGGUAA, the “self-splicing fitness (ln)” value (30 °C) is -0.706 ± 0.066 and the “self-splicing fitness (ln)” value (37 °C) was -0.344 ± 0.076.
